This test deals with Cdc13 amino-terminus through the DBD (N) (S. cerevisiae). Kind of test: fluorescence polarisation.

The substance “Hsp82 (yeast Hsp90 molecular chaperone) (from UniProt P02829 1-709) (natural protein)” displayed a Kd of 35 nM.

As usually defined, the Kd is the free concentration of one partner at which half of the binding sites on the other are occupied at equilibrium, for simple one-to-one binding. Low values mean tighter binding, high ones weaker binding.

The values are drawn from article PMC2744139.
